For experiment [1], the target named is full length human APOBEC3G (human) (UniProt Q9HC16). The experiment in a line: atomic force microscopy (protein volume analysis); 80 nM A3G with 4 nM hybrid DNA; 50 mM HEPES pH 7.5, 100 mM NaCl, 5 mM MgCl2, 1 mM DTT, 37 °C 30 min; on APS-mica, tapping mode in air; stoichiometry of A3G on the DNA from volume.
For experiment [2] the target is unchanged. Described as above. The source holds these as a separate data set.
For experiment [3] the target is unchanged. The experiment is described as follows: atomic force microscopy (protein volume analysis); 16 nM A3G with 4 nM hybrid DNA; 50 mM HEPES pH 7.5, 100 mM NaCl, 5 mM MgCl2, 1 mM DTT, 37 °C 30 min; on APS-mica, tapping mode in air; stoichiometry of A3G on the DNA from volume.
Experiment [4] has the same target. The experiment is described as follows: atomic force microscopy (protein volume analysis); 32 nM A3G with 4 nM hybrid DNA; 50 mM HEPES pH 7.5, 100 mM NaCl, 5 mM MgCl2, 1 mM DTT, 37 °C 30 min; on APS-mica, tapping mode in air; stoichiometry of A3G on the DNA from volume; fractions from areas under the Gaussians.

Several values for one entry are separate records, joined by “and”; a condition that tells them apart may be missing. Equal values may be shown once. Read-outs that look alike come from different tables or passages of the source.

For orientation: stoichiometry N means the number of molecules, sites or subunits per partner or assembly.

As to “full length human APOBEC3G (from UniProt Q9HC16 1-384) (enzyme)”, in experiment [1], the percent of A3G-DNA complexes with A3G trimers is 82%, the percent of A3G-DNA complexes with higher order A3G oligomers was 18% and the stoichiometry N came to 6. Further, in experiment [2], the percent of A3G-DNA complexes with A3G trimers stood at 88%, the percent of A3G-DNA complexes with higher order A3G oligomers stood at 12% and the stoichiometry N is 3. Further, the stoichiometry N in experiment [3] was 2 and 3. Further, in experiment [4], the percent of A3G-DNA complexes with A3G dimers was determined as 78%; the percent of A3G-DNA complexes with A3G tetramers came out at 22%; the stoichiometry N is 2 and 4.

The values above are taken from publication PMC6298963.
